Test results taken from the RNAGym collection of RNA variant scans (doi:10.1073/pnas.2313332121).
Fewer inactive variants are shown than the library holds.

B1: TPR 5TU (parent)
chain: GGAUCUUCUCGAUCUAACAAAAAAGACAAAUCUGCCACAAAGCUUGAGAGCAUCUUCGGAUGCAGAGGCGGCAGCCUUCGGUGGCGCGAUAGCGCCAACGUUCUCAACUAUGACACGCAAAACGCGUGCUCCGUUGAAUGGAGUUUAUCAUG

Variants of: B1
Assay: polymerase ribozyme fitness, log enrichment relative to wild type (log ratio); higher = more active; in vitro selection for triplet polymerase activity
Method in brief: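 Mutant libraries were PCR-built and transcribed for each subunit of a heterodimeric triplet polymerase ribozyme and selected for one round in triplicate at −7 °C, frozen, before gel excision of extended constructs and streptavidin-bead capture. Input and output libraries were Illumina-sequenced, keeping genotypes with ≥10 input reads and ≥1 read per output. Fitness is a logarithmic ratio of genotype to wild-type enrichment, in base 2, using inverse-variance-weighted replicate averages.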

A21C C43A U45G G48C A73G G86U C96G A97C G140U and A20U U61A C75U G81U C99G U148G cannot be ordered by “polymerase ribozyme fitness (log ratio)” value: no more than -4.2 for the first, no more than -4.2 for the second.

Compared with A21C C85U U102G C118U U144G U151A, A20U U31C C116U A121U A150C is higher in “polymerase ribozyme fitness (log ratio)” value: no more than -4.2 for the first, -3.57 for the second.

Going from A20U G50U C76A G92C A110G C118G A137U to A20U G67A, the “polymerase ribozyme fitness (log ratio)” value rises from no more than -4.2 to -3.89.

Compared with A21C C27U G59C C69A, A19U A40G A110C is lower in “polymerase ribozyme fitness (log ratio)” value: -3.75 for the first, no more than -4.2 for the second.

Compared with A20U A52G U53A U55A C69A A110G U146G, A21G G59C C85U U102C C116G U134A is higher in “polymerase ribozyme fitness (log ratio)” value: no more than -4.2 for the first, -4.09 for the second.

A21G C36U A52C A107U U127C and A19U U56A G86A A107G cannot be ordered by “polymerase ribozyme fitness (log ratio)” value: no more than -4.2 for the first, no more than -4.2 for the second.

Going from A19U C57G A121G A150G to A21G U31A A41G C51U C87A C118A U139A C149G, the “polymerase ribozyme fitness (log ratio)” value falls from -1.93 to no more than -4.2.

A19U A22G C27G A30U G88C C95U and A20G A24G A39G A40C C76A G136U G141A cannot be ordered by “polymerase ribozyme fitness (log ratio)” value: no more than -4.2 for the first, no more than -4.2 for the second.

Compared with A21G A138G, A21G U56A G67C U77G G88A C99A U109G is lower in “polymerase ribozyme fitness (log ratio)” value: -3.38 for the first, no more than -4.2 for the second.

A20U A30C G70A and A20U A22C C87A G88C A98U A107G cannot be ordered by “polymerase ribozyme fitness (log ratio)” value: no more than -4.2 for the first, no more than -4.2 for the second.

A21G G25C G34A G71U G100C A107U U109C A121U A150U and A20U A24U G58C C96G A119G cannot be ordered by “polymerase ribozyme fitness (log ratio)” value: no more than -4.2 for the first, no more than -4.2 for the second.

Going from A20G G86U A91C U146G to A21G G74A A89U G92U, the “polymerase ribozyme fitness (log ratio)” value rises from no more than -4.2 to -3.57.

Going from A19U C35U G86A A119G G141A to A20U G62C G71A G117U U135G, the “polymerase ribozyme fitness (log ratio)” value falls from -3.69 to no more than -4.2.

Going from A19U G62A A73U A110G A121U to A20C G136C, the “polymerase ribozyme fitness (log ratio)” value rises from no more than -4.2 to -4.19.

First: A20C A40C C103U U145C
Second: A20C A26G U56A C63U G67U G80A C85U G86C C103G
The “polymerase ribozyme fitness (log ratio)” value of the first is higher: -0.185 for the first, no more than -4.2 for the second.

A21G C69G U82A C87U and A20G U55A G59U C76U C96A are within 0.2 log units of each other in “polymerase ribozyme fitness (log ratio)” value: -1.28 for the first, -1.18 for the second.

Going from A21C C85G C87U U145G to A19U U55A C76G C93A, the “polymerase ribozyme fitness (log ratio)” value falls from -3.2 to no more than -4.2.

A20C C27G C96G A115U and A19U A30U U90G A91C C118G cannot be ordered by “polymerase ribozyme fitness (log ratio)” value: no more than -4.2 for the first, no more than -4.2 for the second.

A21C C27G A64C C85A and A21C C57A A91G C99U G140C cannot be ordered by “polymerase ribozyme fitness (log ratio)” value: no more than -4.2 for the first, no more than -4.2 for the second.

Going from A20C U44C U55G C69A to A19U G83C A89C A97G, the “polymerase ribozyme fitness (log ratio)” value rises from no more than -4.2 to -2.32.

A20G C85A U104C C105G and A21C A52G C125A A142U cannot be ordered by “polymerase ribozyme fitness (log ratio)” value: no more than -4.2 for the first, no more than -4.2 for the second.

Compared with A20G U53G G74A C93A, A20G C63U C96A G143C is higher in “polymerase ribozyme fitness (log ratio)” value: no more than -4.2 for the first, -3.2 for the second.

Going from A19U G83A U90A G94U to A21C A47C C96A G133C, the “polymerase ribozyme fitness (log ratio)” value rises from no more than -4.2 to -1.54.

Compared with A19U A21C A120C, A21G U56A is higher in “polymerase ribozyme fitness (log ratio)” value: -1.83 for the first, -0.198 for the second.

First: A21C G84U
Second: A20C C36U G86A A89G C93A G94U G140A G143C
The “polymerase ribozyme fitness (log ratio)” value of the first is higher: -1.28 for the first, no more than -4.2 for the second.

A20U G25C G50C C118U and A20U A37G A120C A142C cannot be ordered by “polymerase ribozyme fitness (log ratio)” value: no more than -4.2 for the first, no more than -4.2 for the second.

Compared with A19U A52C U55A A60C C76U G83A C85U C129G A150G, A20U C69A is higher in “polymerase ribozyme fitness (log ratio)” value: no more than -4.2 for the first, -2.18 for the second.

Going from A20C C85A G126C to A21G G50C A66C U82C G86C C114G A120C A150G, the “polymerase ribozyme fitness (log ratio)” value falls from 0.52 to no more than -4.2.

Going from A20C C38G to A20C G81U G94U A120U U151C, the “polymerase ribozyme fitness (log ratio)” value falls from -1.37 to -4.13.

First: A20G U82A C96G
Second: A20U C87U G88C U101A U146G
The “polymerase ribozyme fitness (log ratio)” value of the first is higher: 0.0125 for the first, no more than -4.2 for the second.

Compared with A20C C96U A142C, A21G G84A A137C is lower in “polymerase ribozyme fitness (log ratio)” value: -1.62 for the first, -3.28 for the second.

Going from A20U C35U U144C to A21C U53A C54G C76G C103G G133U, the “polymerase ribozyme fitness (log ratio)” value falls from -2.73 to no more than -4.2.

A19U A21U A30U A40C U55A C96U G126A C132U G143U and A21G A49C C93G C96U cannot be ordered by “polymerase ribozyme fitness (log ratio)” value: no more than -4.2 for the first, no more than -4.2 for the second.

A20U A91U A115U and A20C U53A U56G C85A A119C are within 0.2 log units of each other in “polymerase ribozyme fitness (log ratio)” value: -4.17 for the first, -4 for the second.

Going from A19U A21C C96U C129A to A19U A21U A39G C43A U45A A91G, the “polymerase ribozyme fitness (log ratio)” value falls from -4.13 to no more than -4.2.

Compared with A21G A89G C99U, A20C C38G G70A C87U C108U is lower in “polymerase ribozyme fitness (log ratio)” value: -1.34 for the first, no more than -4.2 for the second.

First: A20C G92U C125A
Second: A20U A21U A41C A47U G58U U104A
The “polymerase ribozyme fitness (log ratio)” value of the first is higher: -0.863 for the first, -2.77 for the second.

A20U A41U and A20U A41C are within 0.2 log units of each other in “polymerase ribozyme fitness (log ratio)” value: -2.17 for the first, -2.09 for the second.

A21C A52C C57A G88A G92A A97U and A19U C38G C43G G80C C87U C149G cannot be ordered by “polymerase ribozyme fitness (log ratio)” value: no more than -4.2 for the first, no more than -4.2 for the second.

A19U A41C G50C C96U C99U U101G and A19U A30U C36G A97U cannot be ordered by “polymerase ribozyme fitness (log ratio)” value: no more than -4.2 for the first, no more than -4.2 for the second.

Compared with A20C A28U C35A G67U U102A, A20G A91G is higher in “polymerase ribozyme fitness (log ratio)” value: no more than -4.2 for the first, -2.54 for the second.

Going from A20U U53G C72G C95G C108U C118A to A19U U31C C132G, the “polymerase ribozyme fitness (log ratio)” value rises from no more than -4.2 to -2.74.
